Results published in paper PMC7865324.

Target: citrate synthase (CS) from porcine heart (porcine) (UniProt P00889)
UniProt P00889, sequence (P00889 28-464): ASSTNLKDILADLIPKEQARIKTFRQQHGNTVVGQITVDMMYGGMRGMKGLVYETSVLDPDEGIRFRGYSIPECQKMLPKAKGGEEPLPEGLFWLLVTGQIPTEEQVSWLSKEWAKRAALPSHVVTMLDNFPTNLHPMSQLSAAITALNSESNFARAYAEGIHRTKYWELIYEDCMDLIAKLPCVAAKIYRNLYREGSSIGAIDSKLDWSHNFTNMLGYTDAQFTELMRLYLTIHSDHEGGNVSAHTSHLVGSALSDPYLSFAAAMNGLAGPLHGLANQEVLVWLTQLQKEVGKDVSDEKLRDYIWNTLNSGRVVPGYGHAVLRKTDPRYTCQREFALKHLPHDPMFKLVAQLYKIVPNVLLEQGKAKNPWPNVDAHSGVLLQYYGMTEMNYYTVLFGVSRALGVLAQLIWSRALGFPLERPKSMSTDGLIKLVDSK

## recombinant ZnJ6 (Cre06.g251716.t1.2) fused to the streptavidin-binding peptide (SBP) tag (natural protein)
  citrate synthase thermal aggregation assay (OD360, 42 °C, 1 h): percent of CS kept soluble, ZnJ6:CS 0.1:1 to 10:1: 86%
